Reference: US20060134122A1, “Peptides of syndecan-1 for inhibition of cancer” (priority 2004, published 2006)

B1: GST-mS4ED: recombinant GST fusion of mouse syndecan-4 ectodomain, specificity control (protein)
chain: ESIRETEVIDPQDLLEGRYFSGALPDDEDAGGSDDFELSGSGDLDDTEEPRPFPEVIEPLVPLDNHIPENAQPGIRVPSEPKELEENEVIPKRAPSDVGDDMSNKVSMSSTAQGSNIFERTE
modifications: left off: a dimerising Fc or GST
notes: recombinant GST fusion of mouse syndecan-4 ectodomain, specificity control
B2: GST-mS1ED: recombinant mouse syndecan-1 ectodomain expressed as a fusion protein with GST (protein)
chain: QIVAVNVPPEDQDGSGDDSDNFSGSGTGALPDTLSRQTPSTWKDVWLLTATPTAPEPTSSNTETAFTSVLPAGEKPEEGEPVLHVEAEPGFTARDKEKEVTTRPRETVQLPITQRASTVRVTTAQAAVTSHPHGGMQPGLHETSAPTAPGQPDHQPPRVEGGGTSVIKEVVEDGTANQLPAGEGSGEQDFTFETSGENTAVAAVEPGLRNQPPVDEGATGASQSLLDRKEVLG
modifications: left off: a dimerising Fc or GST
notes: recombinant mouse syndecan-1 ectodomain expressed as a fusion protein with GST

Test system: MDA-MB-231 human mammary carcinoma cells
Assay: Cell spreading assay (rhodamine-phalloidin), MDA-MB-231
Format: cell-based
Details: 2 h, LM609 30 μg/mL, GST-mS1ED or GST-mS4ED 20 μM; for cell spreading on FN: wells coated with 10 μg/mL FN, mAb 13 25 μg/mL; for cell spreading on VN: wells coated with 10 μg/mL VN, absence of serum
Protocol: FIG. 1 —MDA-MB-231 human mammary carcinoma cell spreading on VN, but not FN, is disrupted by soluble, recombinant Sdc-1ED. Cells were plated on wells coated with 10 μg/mL of VN or FN in plating medium alone or medium containing either 30 μg/mL mAb LM609, 25 μg/mL mAb 13, 20 μM GST-mS1ED or -mS4ED. Cells were incubated at 37° C. for 2 h, fixed and stained with rhodamine-conjugated phalloidin. Bar, 50 μm.
FIGS. 6A-B—Deletion of a region of the Sdc-1ED blocks αvβ3-mediated cell spreading. (FIG. 6A) Graphic representation of S1 expression constructs transfected into MDA-MB-231 cells and their relative expression levels as detected by FACS (mean fluorescent intensity). Note the locations of the mAb 281.2 and B-B4 binding sites; asterisks indicate the HS attachment sites. (FIG. 6B) Cells transfected with empty vector (NEO) or S1 constructs were seeded in plating medium on wells coated with either anti-hS1 mAb B-B4 (NEO+inset, hS1 and insets of mS1) or anti-mS1 mAb 281.2 (all others). Where noted, cells were pretreated in suspension with 1 μg/mL mAb P5D2 for 15 min prior to plating. Cells were incubated at 37° C. for 2 h, fixed and stained with rhodamine-conjugated phalloidin. Bar, 50 μm.
FIGS. 8A-H—Downregulation of Sdc-1 expression by siRNA disrupts cell spreading and migration on VN. (FIG. 8A) SiRNA targeting of hS1 mRNA. FACS analysis for (FIGS. 8B-C) hS1 (mAb B-B4), (FIG. 8D) hS4 (mAb F94-8G3) and (FIG. 8E) mS1 (mAb 281.2) expression against IgG controls (black filled histograms) in NEO and GPI-mS1ED expressing MDA-MB-231 cells 72 h after transfection with either lipid-vehicle alone (Vehicle or (V)) or 200 nM siRNA (RNAi or (R)). (FIG. 8F) NEO^MDA-MB-231 cells and MDA-MB-231 cells expressing GPI-mS1ED, mS1^Δ88-252, mS1^Δ122-252 and mS1^TDM were transfected with lipid-vehicle alone or 200 nM hS1-siRNA and seeded on wells coated with either 10 μg/ml of VN or FN. Cells were incubated at 37° C. for 2 h, fixed and stained with rhodamine-conjugated phalloidin. Bar, 50 μm. (FIG. 8G-H) Lipid-vehicle (gray-filled) or hS1-siRNA (black-filled) transfected cells were also plated on polycarbonate filters coated with either 10 μg/ml of VN (FIG. 8G) or FN (FIG. 8H) in a modified Boyden chamber. After 16 h, cells that migrated through the filter in response to 10% FBS in the lower chamber were quantified by colorimetric staining.
MDA-MB-231 human mammary carcinoma cells, plated in the absence of serum, adhere to and spread (˜15-20 min after plating) on wells coated with either 10 μg/mL VN or FN (FIG. 1). […] LM609 has no effect on spreading in response to FN; instead, the cells rely on […] to respond to FN as spreading is blocked by either 25 μg/mL mAb 13 (FIG. 1; Mould et al., 1996) or mAb 16 (unpublished data; Akiyama et al., 1989). […]

Molecule | cell spreading on FN | cell spreading on VN
B1 | no effect | no effect
B2 | no effect | blocks cell spreading
